Data on one molecule can be found in US20230045873A1 (ONCOONE RESEARCH AND DEVELOPMENT, published 2023).

In this assay the target is T1, oxMIF (recombinant human MIF immobilized into microwell plates, transforming MIF to oxMIF) (human, UniProt P14174 2-115).
T1 construct: also called immobilized MIF (oxMIF); immobilized oxMIF
Put plainly: ELISA on immobilized MIF (oxMIF), protein L-HRP detection, mean of triplicate. How it is done:
Recombinant human MIF (1 μg/ml) diluted in PBS was immobilized into microwell plates (transforming MIF to oxMIF according to Thiele M. et al., 2015, J Immunol 2015; 195:2343-2352). After blocking, the bispecific antibodies were added to the plates at different concentrations. Bound bispecific antibodies were detected using protein L-HRP conjugate. Plates were developed by adding 3 3′5 5′tetramethylbenzidine (TMB) and chromogenic reaction was stopped with […]. OD was measured at 450 nm.
The binding curves of anti-oxMIF/CD3 bispecific antibodies C0061 and C0062 binding towards immobilized MIF (oxMIF) in an ELISA are depicted in FIG. 4. The monospecific anti-oxMIF antibody C0008 was used as positive control for oxMIF binding. EC50 values of the binding curves, which reflect rough KD estimates, were calculated by 4-parameter fit.

T1 sequence (P14174 2-115 limits assumed): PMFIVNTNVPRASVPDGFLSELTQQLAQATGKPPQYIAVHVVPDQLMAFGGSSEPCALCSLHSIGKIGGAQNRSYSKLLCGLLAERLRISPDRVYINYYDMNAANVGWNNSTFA

B1: C0061 (Anti-oxMIF Fab and anti-oxMIF/anti-CD3 BiTE fused to Fc; Fab-BiTE-Fc) (bispecific antibody, human IgG1, kappa)
heavy: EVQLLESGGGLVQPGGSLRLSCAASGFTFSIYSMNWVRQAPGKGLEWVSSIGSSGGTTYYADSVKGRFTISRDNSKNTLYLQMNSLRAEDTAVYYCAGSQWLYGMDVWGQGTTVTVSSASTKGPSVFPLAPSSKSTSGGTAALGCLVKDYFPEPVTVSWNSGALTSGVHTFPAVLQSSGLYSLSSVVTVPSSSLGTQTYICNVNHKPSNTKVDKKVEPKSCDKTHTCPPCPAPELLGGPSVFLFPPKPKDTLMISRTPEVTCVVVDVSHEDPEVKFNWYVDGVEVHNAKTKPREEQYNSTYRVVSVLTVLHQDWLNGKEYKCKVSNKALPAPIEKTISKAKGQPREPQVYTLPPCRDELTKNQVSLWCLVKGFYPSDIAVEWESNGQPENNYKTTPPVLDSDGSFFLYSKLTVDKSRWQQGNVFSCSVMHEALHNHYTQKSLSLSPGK
chain: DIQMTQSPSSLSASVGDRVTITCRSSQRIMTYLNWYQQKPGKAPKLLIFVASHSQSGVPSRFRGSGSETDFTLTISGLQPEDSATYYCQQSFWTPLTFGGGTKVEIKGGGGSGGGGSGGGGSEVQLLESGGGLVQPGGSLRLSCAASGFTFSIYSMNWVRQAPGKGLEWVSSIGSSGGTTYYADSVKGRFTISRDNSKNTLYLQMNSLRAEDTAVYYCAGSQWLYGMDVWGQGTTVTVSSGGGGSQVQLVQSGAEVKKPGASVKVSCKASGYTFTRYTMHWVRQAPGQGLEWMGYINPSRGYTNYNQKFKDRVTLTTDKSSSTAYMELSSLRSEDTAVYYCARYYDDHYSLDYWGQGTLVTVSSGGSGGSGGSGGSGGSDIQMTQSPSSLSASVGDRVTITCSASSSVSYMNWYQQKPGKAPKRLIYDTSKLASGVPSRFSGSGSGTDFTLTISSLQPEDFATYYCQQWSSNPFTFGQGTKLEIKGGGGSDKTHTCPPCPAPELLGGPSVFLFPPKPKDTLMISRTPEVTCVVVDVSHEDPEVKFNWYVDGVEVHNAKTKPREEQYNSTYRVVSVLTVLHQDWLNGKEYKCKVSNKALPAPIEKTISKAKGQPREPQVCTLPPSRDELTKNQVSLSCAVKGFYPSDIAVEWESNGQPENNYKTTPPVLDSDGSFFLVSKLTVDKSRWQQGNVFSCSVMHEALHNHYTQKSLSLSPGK
light: DIQMTQSPSSLSASVGDRVTITCRSSQRIMTYLNWYQQKPGKAPKLLIFVASHSQSGVPSRFRGSGSETDFTLTISGLQPEDSATYYCQQSFWTPLTFGGGTKVEIKRTVAAPSVFIFPPSDEQLKSGTASVVCLLNNFYPREAKVQWKVDNALQSGNSQESVTEQDSKDSTYSLSSTLTLSKADYEKHKVYACEVTHQGLSSPVTKSFNRGEC
notes: Three polypeptides; bivalent for oxMIF, monovalent for CD3
With B1, the 50% effective concentration (EC50) came out at 0.9 nM.
